Tests used:
Test in all cases: pull-down
Settings in all cases: both partners purified
[1] = molecular target: original purified His-tagged N protein (SARS-CoV-2, UniProt P0DTC9 1-419)
[2] = molecular target: R203M and D377Y mutant N protein, His-tagged (SARS-CoV-2, UniProt P0DTC9 1-419, R203M | D377Y)
[3] = molecular target: Omicron mutant N protein, His-tagged (SARS-CoV-2, UniProt P0DTC9 1-419, P13L | RG203/204KR)

Measured: binding result

B1: purified RIG-I-GST protein (natural protein)
chain: MTTEQRRSLQAFQDYIRKTLDPTYILSYMAPWFREEEVQYIQAEKNNKGPMEAATLFLKFLLELQEEGWFRGFLDALDHAGYSGLYEAIESWDFKKIEKLEEYRLLLKRLQPEFKTRIIPTDIISDLSECLINQECEEILQICSTKGMMAGAEKLVECLLRSDKENWPKTLKLALEKERNKFSELWIVEKGIKDVETEDLEDKMETSDIQIFYQEDPECQNLSENSCPPSEVSDTNLYSPFKPRNYQLELALPAMKGKNTIICAPTGCGKTFVSLLICEHHLKKFPQGQKGKVVFFANQIPVYEQQKSVFSKYFERHGYRVTGISGATAENVPVEQIVENNDIIILTPQILVNNLKKGTIPSLSIFTLMIFDECHNTSKQHPYNMIMFNYLDQKLGGSSGPLPQVIGLTASVGVGDAKNTDEALDYICKLCASLDASVIATVKHNLEELEQVVYKPQKFFRKVESRISDKFKYIIAQLMRDTESLAKRICKDLENLSQIQNREFGTQKYEQWIVTVQKACMVFQMPDKDEESRICKALFLYTSHLRKYNDALIISEHARMKDALDYLKDFFSNVRAAGFDEIEQDLTQRFEEKLQELESVSRDPSNENPKLEDLCFILQEEYHLNPETITILFVKTRALVDALKNWIEGNPKLSFLKPGILTGRGKTNQNTGMTLPAQKCILDAFKASGDHNILIATSVADEGIDIAQCNLVILYEYVGNVIKMIQTRGRGRARGSKCFLLTSNAGVIEKEQINMYKEKMMNDSILRLQTWDEAVFREKILHIQTHEKFIRDSQEKPKPVPDKENKKLLCRKCKALACYTADVRVIEECHYTVLGDAFKECFVSRPHPKPKQFSSFEKRAKIFCARQNCSHDWGIHVKYKTFEIPVIKIESFVVEDIATGVQTLYSKWKDFHFEKIPFDPAEMSK
notes: also called GST-RIG-I; RIG-I protein (labeled with GST tag); source: E. coli BL21, purified (GSH Magnetic Agarose Beads)
binds: [1] | [2] | [3]
